The values that follow come from patent publication US20210155689A1 (SHANGHAI PHARMAEXPLORER, published 2021).

Several values for one entry are separate records, joined by “and”; a condition that tells them apart may be missing. Equal entries are not always repeated.

Experiment [1] has as its target human LAG-3 (full length, on the cell surface) (human) (UniProt P18627). Nature of the experiment: cell-based or functional assay.
Target sequence in this assay (P18627 23-525 limits assumed): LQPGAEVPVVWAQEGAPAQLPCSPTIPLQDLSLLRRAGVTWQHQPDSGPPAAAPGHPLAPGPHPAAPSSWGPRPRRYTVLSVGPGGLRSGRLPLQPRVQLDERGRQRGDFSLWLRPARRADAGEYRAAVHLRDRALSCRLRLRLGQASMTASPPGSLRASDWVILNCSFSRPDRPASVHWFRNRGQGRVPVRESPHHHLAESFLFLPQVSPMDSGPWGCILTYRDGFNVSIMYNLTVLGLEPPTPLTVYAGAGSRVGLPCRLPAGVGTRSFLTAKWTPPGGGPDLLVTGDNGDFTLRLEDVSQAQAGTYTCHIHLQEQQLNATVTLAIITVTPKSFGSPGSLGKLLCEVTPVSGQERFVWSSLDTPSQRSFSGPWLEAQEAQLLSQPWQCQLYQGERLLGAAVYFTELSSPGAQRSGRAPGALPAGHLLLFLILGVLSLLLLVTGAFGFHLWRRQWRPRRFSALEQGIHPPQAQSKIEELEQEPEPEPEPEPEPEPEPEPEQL
Experiment [2] shares this target. The experiment is described as follows: FACS, HEK293-hLAG-3; 0.000 nM.
The target is the same in experiment [3]. Nature of the experiment: FACS, HEK293-hLAG-3; 0.013 nM.
The target is the same in experiment [4]. Nature of the experiment: FACS, HEK293-hLAG-3; 0.064 nM.
The target is the same in experiment [5]. Nature of the experiment: FACS, HEK293-hLAG-3; 0.320 nM.
The target is the same in experiment [6]. Nature of the experiment: FACS, HEK293-hLAG-3; 1.600 nM.
Experiment [7] has the same target. The experiment is described as follows: FACS, HEK293-hLAG-3; 8.000 nM.
Experiment [8] addresses monkey LAG-3 (full length, on the cell surface) (monkey). The experiment is described as follows: FACS, HEK293-cLAG-3; 0.000 nM.
For experiment [9] the target is unchanged. The experiment is described as follows: FACS, HEK293-cLAG-3; 0.013 nM.
Experiment [10] has the same target. Nature of the experiment: FACS, HEK293-cLAG-3; 0.064 nM.
The target is the same in experiment [11]. The experiment is described as follows: FACS, HEK293-cLAG-3; 0.320 nM.
Experiment [12] shares this target. Nature of the experiment: FACS, HEK293-cLAG-3; 1.600 nM.
Experiment [13] has the same target. Nature of the experiment: FACS, HEK293-cLAG-3; 8.000 nM.
Experiment [14] addresses human LAG-3 (full length, on the cell surface) (human) (UniProt P18627). Nature of the experiment: FACS, HEK293-hLAG-3; 40.000 nM.
The target of experiment [15] is monkey LAG-3 (full length, on the cell surface) (monkey). Nature of the experiment: FACS, HEK293-cLAG-3; 40.000 nM.
monkey LAG-3 (full length, on the cell surface) (monkey), sequence (P18627 other isoform, or with tags, fused parts or gaps limits assumed): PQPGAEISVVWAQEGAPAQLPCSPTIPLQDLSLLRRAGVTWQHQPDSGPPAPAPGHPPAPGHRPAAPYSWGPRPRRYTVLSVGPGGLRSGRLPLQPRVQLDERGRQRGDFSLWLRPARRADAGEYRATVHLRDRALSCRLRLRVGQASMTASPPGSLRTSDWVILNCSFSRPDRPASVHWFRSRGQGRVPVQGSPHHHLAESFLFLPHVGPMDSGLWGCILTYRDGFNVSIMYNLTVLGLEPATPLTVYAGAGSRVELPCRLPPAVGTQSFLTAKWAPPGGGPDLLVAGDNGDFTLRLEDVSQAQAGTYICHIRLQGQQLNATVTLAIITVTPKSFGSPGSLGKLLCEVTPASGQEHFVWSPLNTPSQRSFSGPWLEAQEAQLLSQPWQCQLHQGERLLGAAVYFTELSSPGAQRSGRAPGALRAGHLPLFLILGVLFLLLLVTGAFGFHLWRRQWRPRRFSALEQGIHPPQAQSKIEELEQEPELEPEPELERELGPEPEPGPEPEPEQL
Experiment [16] concerns the target human LAG-3 (full length, on the cell surface) (human) (UniProt P18627). The experiment is described as follows: FACS, HEK293-hLAG-3; 200.000 nM.
The target in experiment [17] is monkey LAG-3 (full length, on the cell surface) (monkey). Nature of the experiment: FACS, HEK293-cLAG-3; 200.000 nM.
For experiment [18], the target named is human LAG-3 protein with hFc tag (hLAG-3-hFc protein) (human) (UniProt P18627). The experiment is described as follows: FACS, blocks LAG-3-hFc binding to MHC II on Raji; 0.000 nM.
Experiment [19] has the same target. The experiment is described as follows: FACS, blocks LAG-3-hFc binding to MHC II on Raji; 0.274 nM.
For experiment [20] the target is unchanged. Nature of the experiment: FACS, blocks LAG-3-hFc binding to MHC II on Raji; 0.823 nM.
For experiment [21] the target is unchanged. The experiment is described as follows: FACS, blocks LAG-3-hFc binding to MHC II on Raji; 2.469 nM.
Experiment [22] shares this target. The experiment is described as follows: FACS, blocks LAG-3-hFc binding to MHC II on Raji; 7.407 nM.
Experiment [23] shares this target. The experiment is described as follows: FACS, blocks LAG-3-hFc binding to MHC II on Raji; 22.222 nM.
For experiment [24] the target is unchanged. The experiment is described as follows: FACS, blocks LAG-3-hFc binding to MHC II on Raji; 66.667 nM.
Experiment [25] has the same target. Nature of the experiment: FACS, blocks LAG-3-hFc binding to MHC II on Raji; 200.000 nM.
Experiment [26] has as its target T1, human LAG-3 ECD (antigen protein of the affinity test) (human, UniProt P18627 23-450).
T1 sequence: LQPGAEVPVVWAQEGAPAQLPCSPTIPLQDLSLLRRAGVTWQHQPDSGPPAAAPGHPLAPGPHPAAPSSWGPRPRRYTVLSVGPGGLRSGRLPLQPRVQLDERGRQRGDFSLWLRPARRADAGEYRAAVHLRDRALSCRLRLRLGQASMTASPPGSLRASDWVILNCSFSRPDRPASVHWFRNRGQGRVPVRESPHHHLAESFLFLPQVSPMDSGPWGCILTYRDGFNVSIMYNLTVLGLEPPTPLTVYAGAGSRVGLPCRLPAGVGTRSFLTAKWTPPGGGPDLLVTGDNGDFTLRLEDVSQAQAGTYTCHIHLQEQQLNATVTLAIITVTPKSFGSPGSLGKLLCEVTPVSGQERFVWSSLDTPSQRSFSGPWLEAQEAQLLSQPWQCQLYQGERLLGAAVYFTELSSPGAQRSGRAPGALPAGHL
The experiment is described as follows: SPR (CM5 chip), antibody captured by anti-human Fc IgG, antigen protein in flow, 1:1 model. How it is done:
First, anti-human Fc IgG was immobilized on the surface of the CM5 chip to 6000-10000 RU by amino coupling method, with FC1 as the reference channel. The coupling process was as follows: a freshly prepared 1:1 mixture of 50 mM NHS and 200 mM EDC was activated for 7 minutes, then injected with 10-50 ug/ml anti-human Fc IgG diluted in 10 mM sodium acetate ph5.0 buffer. The remaining activated sites were blocked with 1M ethanolamine. Then, HBS-EP+ buffer was used to dilute the antibody to be tested to 5 ug/ml (adjustable according to the capture level) and the antibodies were captured on the chip at a flow rate of 10 ul/min to obtain a response value of about 100˜300 RU. Then the antigen protein was diluted to 100 nM (the highest concentration was tentatively 100 nM), and flew through the chip surface at a flow rate of 30 ul/min. If enough signal value was obtained, the antigen-protein was diluted by several concentration gradients, and flew through the chip surface respectively. At the end of each cycle, the chip surface was regenerated with 10 mM Glycine at pH 1.5. The kinetic rate constant needed to be subtracted from the blank control, and the data was fitted with the global fit analysis method 1:1 combination model. The dissociation equilibrium rate constant (KD) was calculated according to the following formula: KD=kd/ka.
The method was the same as that in Example 5.

Experiment [27] addresses human LAG-3 (full length, on the cell surface) (human) (UniProt P18627). Nature of the experiment: cell-based or functional assay. The source holds these as a separate data set.

For the molecule mIgG1 (murine IgG control) (antibody), the mIL-2 (pg/mL), antigen-specific T lymphocyte stimulation test; control IgG 0.016 ug/mL in experiment [1] was 177 pg/mL and 104 pg/mL. In [1], the mIL-2 (pg/mL), antigen-specific T lymphocyte stimulation test; control IgG 0.08 ug/mL is 175 pg/mL and 89.2 pg/mL. For the same molecule, the mIL-2 (pg/mL), antigen-specific T lymphocyte stimulation test; control IgG 2 ug/mL in experiment [1] is 174 pg/mL and 84.1 pg/mL. In addition, the mIL-2 (pg/mL), antigen-specific T lymphocyte stimulation test; control IgG 4 ug/mL (so in the source) in experiment [1] was 145 pg/mL and 84.2 pg/mL. Also, the mIL-2 (pg/mL), antigen-specific T lymphocyte stimulation test; control IgG 10 ug/mL in experiment [1] was 169 pg/mL and 108 pg/mL. The Mean fluorescence intensity was 3 MFI and 3.8 MFI in [2]; 2.9 MFI and 3.8 MFI in [3]; 2.9 MFI and 3.8 MFI in experiment [4]; 2.7 MFI and 3.8 MFI in [5]; 2.7 MFI and 3.9 MFI in experiment [6]; 2.9 MFI and 3.9 MFI in experiment [7]. The Mean fluorescence intensity in [8] was 3.4 MFI and 4 MFI; in experiment [9], 3.5 MFI and 4 MFI; in experiment [10], 3.2 MFI and 4 MFI; in experiment [11], 3.3 MFI and 4 MFI; in experiment [12] it was 3.2 MFI and 4 MFI; in experiment [13], 3.3 MFI and 4.1 MFI. The Mean fluorescence intensity in experiment [14] was 2.8 MFI and 4 MFI; in experiment [15] it was 3.3 MFI and 4.1 MFI; in experiment [16] it was 2.8 MFI and 4.2 MFI; in [17] it was 3.6 MFI and 4.2 MFI. The Inhibition rate (%) in experiment [18] was 8.2% and -11.5%; in experiment [19], 5.3% and -3.9%; in experiment [20], 13.8% and 4%; in [21], 13.7% and 1.8%; in [22], 3.4% and 2.8%; in [23], 2.8% and 4.2%. For the same molecule, the Inhibition rate (%) in experiment [24] was 6.7% and 7.4%; in experiment [25], 12.8% and -0.9%.

B1: 405B8H3 mouse-human chimeric antibody (antibody, V domains shown)
VH: QVQLQQSGAELVRPGASVTLSCKASGYTFTDYEMHWVKQTPVHGLEWIGATDPETGNSAYNQKFKGKAIMTADKSSSTAYMELRSLTSEDSAVYYCISTGWNDWGQGTSLTVSS
VL: DIKMTQSPSSMYASLGERVTITCKASQDINSYLSWFQQKPGKSPKTLIYRADRLLDGVPSRFSGSGSGQDYSLTISSLEYGDMGIYYCLQYDEFPYTFGGGTKLEIK
notes: also called mAb103-405B8H3
As to B1, in experiment [26], the dissociation constant Kd amounted to 3.11 nM, the koff is 0.000164 s⁻¹ and the kon is 52800 M⁻¹ s⁻¹.

B2: 405B8H3-1 (D→E) hot-spot mutated humanized antibody (antibody, V domains shown)
VH: QVQLVQSGAEVKKPGASVKVSCKASGYTFTDYEMHWVRQAPGQGLEWMGATDPETGNSAYNQKFKGRVTMTRDTSTSTVYMELSSLRSEDTAVYYCISTGWNDWGQGTTVTVSS
VL: DIQMTQSPSSLSASVGDRVTITCKASQDINSYLSWFQQKPGKAPKSLIYRADRLLEGVPSRFSGSGSGTDFTLTISSLQPEDFATYYCLQYDEFPYTFGQGTKLEIK
Consider B2, for which, in [26], the Kd is 2.03 nM, the koff was determined as 0.000158 s⁻¹ and the kon was 77500 M⁻¹ s⁻¹.

B3: 556F6B8-3 (D→E) hot-spot mutated humanized antibody (antibody, V domains shown)
VH: QVQLQESGPGLVKPSETLSLTCTVSGFSLIKYGVHWIRQPPGKGLEWIGVIWRGGITDYNAAFMSRVTISKDTSKSQVSLKLSSVTAADTAVYYCARWEGPLAMDYWGQGTTVTVSS
VL: DIQLTQSPSFLSASVGDRVTITCKASQDVGTTVAWYQQKPGKAPKLLIYWASTRHTGVPSRFSGSGSGTEFTLTISSLQPEDFATYYCQQYSSYPYTFGQGTKLEIK
As for B3, in experiment [26], the Kd came out at 33.5 nM, the koff was found to be 0.00384 s⁻¹ and the on-rate (kon) was 115000 M⁻¹ s⁻¹.

B4: 553G8G8 (mouse antibody purified from hybridoma) (antibody, V domains shown)
VH: RVQLKQSGPGLVQPSQSLSITCTVSGFSLIKYGVHWVRQSPGEGLEWLGVIWRGGITDYNAAFMSRLSITKDNSKSQVFFKMNSLQADDTAIYYCAKWDGPLAMDYWGQGTSVTVSS
VL: DVQMIQSPSSLSASLGDMVTMTCQASQGTNINLNWFQQKPGKAPKLLIYGASNLEDGVPSRFSGSRYGTDFTLTISSLEDEDMATYFGLQHSYLPLTFGAGTKLELK
The molecule B4 showed a mIL-2 (pg/mL), antigen-specific T lymphocyte stimulation test; antibody 0.016 ug/mL in [27] of 98.2 pg/mL. The mIL-2 (pg/mL), antigen-specific T lymphocyte stimulation test; antibody 0.08 ug/mL in experiment [27] is 134 pg/mL. The molecule also had a mIL-2 (pg/mL), antigen-specific T lymphocyte stimulation test; antibody 2 ug/mL in experiment [27] of 251 pg/mL. The mIL-2 (pg/mL), antigen-specific T lymphocyte stimulation test; antibody 10 ug/mL in [27] worked out at 352 pg/mL. The Mean fluorescence intensity in experiment [2] stood at 2.7 MFI; in [3], 3.9 MFI; in experiment [4], 7 MFI; in experiment [5] it was 17.1 MFI; in experiment [6] it was 44.4 MFI; in experiment [7], 68.4 MFI. Besides, the Mean fluorescence intensity was 3.2 MFI in experiment [8]; 3.5 MFI in experiment [9]; 4.2 MFI in experiment [10]; 8.8 MFI in experiment [11]; 28.1 MFI in experiment [12]; 77.7 MFI in experiment [13]. The Mean fluorescence intensity in experiment [14] turned out to be 79.4 MFI; in experiment [15], 112 MFI; in experiment [16], 81 MFI; in experiment [17], 128 MFI. Moreover, the Inhibition rate (%) is -12.4% in [18]; 8.1% in [19]; 15.2% in [20]; 45% in experiment [21]; 93.8% in experiment [22]; 95.8% in [23]. For the same molecule, the Inhibition rate (%) in experiment [24] turned out to be 96%; in experiment [25] it was 95.9%.

B5: 556F6B8 mouse-human chimeric antibody (antibody, V domains shown)
VH: B4 VH
VL: DIVMTQSHKFLSTSVGDRVSITCKASQDVGTTVAWYQQKPGQSPKLLIYWASTRHTGVPDRFTGSGSGTDFTLTISNVQSEDLADYFCQQYSSYPYTFGGGTKLEIK
notes: also called mAb123-556F6B8
For B5, in experiment [26], the dissociation constant (Kd) came out at 2.68 nM, the off-rate constant (koff) came to 0.000433 s⁻¹ and the association rate constant (kon) came to 162000 M⁻¹ s⁻¹.
